Results from patent US5770384, “Method for determining compound interaction with E2 binding proteins” (New England Medical Center Hospitals, Inc, dated 1998).

Biological target: BPV-1 E2 protein, wild type, full length (amino acids 1 to 410) (bovine papillomavirus (BPV-1), UniProt P03122)
Assay: alternative two hybrid assay in yeast, LexA/LacZ reporter pSH18-34, GAL/XGAL plate

B1: LexA DBD alone (YEplac181GLexA202) (other)
chain: MKALTARQQEVFDLIRDHISQTGMPPTRAEIAQRLGFRSPNAAEEHLKALARKGVIEIVSGASRGIRLLQEEEEGLPLVGRVAAGEPLLAQQHIEGHYQVDPSLFKPNADFLLRVSGMSMKDIGIMDGDLLAVHKTQDVRNGQVVVARIDDEVTVKRLKKQGNKVELLPENSEFKPIVVDLRQQSFTIEGLAVGVIRNGDWL
- binding result: no binding
